Measured values from PMC4004224 (Journal of the American Chemical Society, 2014).

Molecular target: T1, recombinant human Rnase inhibitor (human, UniProt P13489 1-461)
T1 sequence (looked up): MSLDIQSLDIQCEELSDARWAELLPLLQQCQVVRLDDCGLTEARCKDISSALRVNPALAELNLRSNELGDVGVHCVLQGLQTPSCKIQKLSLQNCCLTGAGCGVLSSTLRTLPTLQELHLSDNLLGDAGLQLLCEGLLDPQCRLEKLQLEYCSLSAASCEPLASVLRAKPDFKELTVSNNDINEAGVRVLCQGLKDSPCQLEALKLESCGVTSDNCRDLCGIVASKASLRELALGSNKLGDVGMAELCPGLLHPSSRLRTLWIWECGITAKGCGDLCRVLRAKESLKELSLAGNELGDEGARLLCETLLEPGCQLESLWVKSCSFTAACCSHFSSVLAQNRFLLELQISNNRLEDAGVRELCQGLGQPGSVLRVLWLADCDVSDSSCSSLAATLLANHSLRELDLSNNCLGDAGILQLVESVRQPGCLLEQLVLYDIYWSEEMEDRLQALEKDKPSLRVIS

B1: pyronin-conjugated bovine Rnase A (enzyme, UniProt P61823 27-150, looked up)
chain: KETAAAKFERQHMDSSTSAASSSNYCNQMMKSRNLTKDRCKPVNTFVHESLADVQAVCSQKNVACKNGQTNCYQSYSTMSITDCRETGSSKYPNCAYKTTQANKHIIVACEGNPYVPVHFDASV
modifications: lysines conjugated to the fluorinated pyronin from bromopyronin 5; 0.3-0.6 fluorophores per protein
Question: Does B1 bind?
Answer: binds
